Results taken from the nanobody polyreactivity screen of Harvey et al. (2022).

assay: yeast display, Sf9 membrane polyspecificity reagent, FACS + sequencing; frameworks hold sequencing errors
In short: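 A nanobody's polyreactivity label depends on the gate it was sorted from. Yeast display cells were stained with 10% biotinylated, detergent-solubilized Sf9 membrane reagent for 1 hour at 4 °C, enriched on streptavidin microbeads and sorted by FACS. The low and high (top ~1%) gates were set on anti-HA fluorescence for expression and streptavidin fluorescence for reagent binding.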

Sequence | polyreactivity (PSR sort gate)
QVQLVESGGGLVQAGGSLRLSCASSGNTFERYAMGWYRQAPGKERELVAAITSSGGSTYYADSVKGRFTISRDNAKNTVYLQMNSLKPEDTAVYYCAASWRPRFYWGQGTQVTVSS | high polyreactivity
QVQLVESGGGLVQAGGSLRLSCASSGRIFSDYAMGWYRQAPGKEMEFVAAISSSGGRTYYADSVKGRFTISRDNAKNTFYLQMNSLKQEDTAVYYCNRYYGYYNTGRYGYWGQGTQVTVSS | high polyreactivity
QVQLVESGGGLVQAGGSLRLSCASSGRIFSVYTMGWYRQAPGKERELVAAISSGASTNYADSVKGRFTISRDNAMNTVYLQMKSLKPEDTAVYYCAAVSPRRYRYDYWGQGTQVTVSS | low polyreactivity
QVQLVESGGGLVQAGGSLRLSCASSGRILYLNAMGWYRQAPGKERELVAAITLRAGSTRYADSVKGRFTISRDNAKNTVYLQMNSLKPEDTAVYYCAVAYYRNRMDYWVQGTQVTVSS | high polyreactivity
QVQLVESGGGLVQAGGSLRLSCASSGRTFARNVMGWYRQAPGKERELVAAIRGSGGSTYYADSLKGRFTISRDNGKNTVYLQMNSLKTEDTAVYYCAADSSYTKRHSPTKLHFDYWGQGTQVTVSS | high polyreactivity
QVQLVESGGGLVQAGGSLRLSCASSGRTFAYNAMGRYRQAPGKERELVAAITSSGGSTYYADSVKGRFTISRDNAKNTVYLQMNSLKPEDTAVYYCASYVRPDYYAIHVDYWGQGTQVTVSS | low polyreactivity
QVQLVESGGGLVQAGGSLRLSCASSGRTFGFNVMGWYRQATGKERELVAAISWSGGSTYYADSVKGRFTISRDNAKNTVYLQMNILKPEDTAVYYCNAQYSQVNGYDYWGQGTQVTVSS | low polyreactivity
QVQLVESGGGLVQAGGSLRLSCASSGRTFRKYAMGWYRQAPGKERELVAGIDTSGGSTFYADSVKGRFTISRDNAKNTVYLQMNSLKPEDTAVYYCNADRHRINRPVILYYWGQGTLVTVSS | low polyreactivity
QVQLVESGGGLVQAGGSLRLSCASSGRTFRYNAMGWYIQAPGKESELVAAISRSGGRTYYADSVKGRFTISRDNAKNTVYLQMNSLKPEDTAVYYCAAYYYTAGDSSSRYDYWGQGTQVTVSS | high polyreactivity
QVQLVESGGGLVQAGGSLRLSCASSGRTFTRYAMGWYRQAPGKERELVAAITGGGTTNYADSVKGRFTISRDNAKNTVYLQINSLKPEDTAVYYCAADEQDVFAPGLYFWGQGTQVTVSS | low polyreactivity
QVQLVESGGGLVQAGGSLRLSCASSGRTFVWNAMGWYRQAPGKERELVAAIDWSGGSTYYADSVKGRFTISRDNAKNTVYLQMNSLKPEDTAVYYCAKEYWYRALWYNYWGQGTQVTVSS | high polyreactivity
QVQLVESGGGLVQAGGSLRLSCASSGRTFWYYAMGWYRQPPGKERELVAAITSGGSTNYADSVKGRFTISRDNAKNTVYLQMNSLKPEDTAVYYCATDNPVFEYDYWGQGTQVTVSS | low polyreactivity
QVQLVESGGGLVQAGGSLRLSCASSGRTFYPYAMGWYRQAPGKERDLDAAITWSGGSTYYADSVKGRFTISRDYAKITVYLQMNSLKPEDTAVYYCNATYEAYIYYEYDYWGQGTQVTVSS | low polyreactivity
QVQLVESGGGLVQAGGSLRLSCASSGRTFYRYAMGWYRQAPGKERELVASITRRGGSTYYADSVKGRFTISRDNAKNTVYLQMNSLKPEDTAVYYCAKHSWPLDGGDYWGQGTQVTVSS | low polyreactivity
QVQLVESGGGLVQAGGSLRLSCASSGRTIDGYAMGWYRQAPGKERELVATITWSGDSTYYADSVKGRFTISRDNAKNTVYLKMNSLKPEDTSVYYCAADSYYAYPYGYGYWGQGTQVTVSS | high polyreactivity
QVQLVESGGGLVQAGGSLRLSCASSGRTLPYNAMGWYRQAPGKERELVAAISKRGSSTYYADSVKGRFTLSRDNAKNTVYLQMNSLKPEDTAVYYCAKGGSFYYWGQGTQVTVSS | high polyreactivity
QVQLVESGGGLVQAGGSLRLSCASSGRTYNVMGWYRQATGKERELVAAITWRGGSTHYADSVKGRFTISRDNAKNTVYLQMNSLKAEDTAVYYCSADLLYKSTRVDYWGQGTQVTVSS | low polyreactivity
QVQLVESGGGLVQAGGSLRLSCASSGSIFAGYAMGWYRQAPGKERELVATITSGGSTNYADSVKGRFTISRDNAKNTVYLQMNSLKPEDTAVYYCAADVEVSIPSSYTGGEYDYWGQGTQVTVSS | low polyreactivity
QVQLVESGGGLVQAGGSLRLSCASSGSIFRRNVMGWYRQAPGKERELVASITGRGGSTYYADSVKGRFTISRDNAKNTVYLQMNSLKPEDTAVYYSNADSLRTYDWYTRTVGYGYWVQGTQVTVSS | high polyreactivity
QVQLVESGGGLVQAGGSLRLSCASSGSIFSHYAMGWYRQAPGKERELVAAISRSGGSTYYADSVKGRFTISRDNAKNTVYLQMNSLKPEDTAVYYCAKEGDSGDWFDYWGQGTQVTVSS | low polyreactivity
QVQLVESGGGLVQAGGSLRLSCASSGSIFTCYTMGWYRQAPGKEMELVAAISQTGGRTYYADSVKVRFTISRDNAKNTVYLQMNSLKAEDTAVYYCAARSKRLAHDYWGQGTQVTVSS | high polyreactivity
QVQLVESGGGLVQAGGSLRLSCASSGSIFTINAMGWYRQAPGKERELVAAIPYSGGFTYYADSVKGRFTISRDNAKNTVYLQMNSLKPEDTAVYYCAAVRGYPSRITSYVYTYGYWGQGTQVTVSS | low polyreactivity

Sequence | polyreactivity (PSR sort gate)
QVQLVESGGGLVQAGGSLRLSCASSGSIFTRYAMGWYRQAPGKERELVAAISRRGGSTYYADSVKGRFTISRDNAKNTVYIQMNSLKPEDTAVYYCYPYYIASTFDYWGQGTQVTVSS | high polyreactivity
QVQLVESGGGLVQAGGSLRLSCASSGSNFGYNAMGWYRQAPGKERELVAAILSSDSRTHYADSVKGRFTISRDNAKNTVYFQRNSLKPEDTAVYYCAAVKRRPGHYLYDYWGQGTQVSVSS | low polyreactivity
QVQLVESGGGLVQAGGSLRLSCASSGSTFHVNAMGWYRQAPGKERELVARISSTGRTSYADSVKGRFTISRDNAKNTVYLQMNSLKPEDTAVYYCAARYYRVYVSSDYYYWGQGTQVTVSS | high polyreactivity
QVQLVESGGGLVQAGGSLRLSCASSGSTFPYNAMGWYRQAPGKERELVAAITSSGRTNYADSVKGRFTISRDNAKNTVYLQMNSLKPEDTAVYYCAAGRWYAHRVDYWGQGTQVTVSS | low polyreactivity
QVQLVESGGGLVQAGGSLRLSCASSGSTFTTNALGWYRQAPGKERELVAAISRRGGSTYYADSVKGRFRISRDNAKNTVYLQMNSLKPEDTAVYYCNAVRAEYEFDYWGQGTQVTVSS | high polyreactivity
QVQLVESGGGLVQAGGSLRLSCASSGSTFWVNVMGWYRQAPGKERELVATITSGGRTNYADSVKGRFTISRDNAKNTVYLQMNCLKPEDTAVYYCAADLKRGYLMDYWGQGTQVTVSS | low polyreactivity
QVQLVESGGGLVQAGGSLRLSCASSGTFFGYAMGWYRQAPGKERELVAAITSGGSTYYADSVKGRFTISRDNAKNTVYLQMNSLKPEDTAGYYCARVYSRWSYRYDYWGQGTQVTVST | low polyreactivity
QVQLVESGGGLVQAGGSLRLSCASSGTFRLYAMGWYRQAPGKEREFVAAITSGGRTYADSVKGRFTISRDNAKNTVYLQMNSLKPEDTAVYYCAADAGRILFSGYDYWGQGTQVTVSS | low polyreactivity
QVQLVESGGGLVQAGGSLRLSCASSGYTIPLYAMVWYRQAPGKERELVADINIGGASTYYADSVKGRFTISRDNAKYTVYLQMNSLKPEDTAVYYCAKEYYDGYFTTFEYDYWGQGTQVTVSS | low polyreactivity
QVQLVESGGGLVQAGGSLRLSCATSGNIFWRYSIRWYRQAPGKEREFVAGISLRGSSTYYADSVKGRFTISRDNAKNTVYLEMNSLKPEDTAVYYCAVRQPRGSTVFYGGNYWGQGTQVTVSS | low polyreactivity
QVQLVESGGGLVQAGGSLRLSCATSGRIFHRYAMGWYRQAPGKERELVAGISSSGGSTYADSVKGRFTISRDNAKNTVYLQMNSLKPEDTAVYYCAKYFTDVSRHTYDYWGQGTQVTVSS | high polyreactivity
QVQLVESGGGLVQAGGSLRLSCATSGSIFVFNAMGWYRQAPGKERELVAAIDTSDDITYYADSVKGRFTISRDNAKNTVYLQMNSLKPEDTAVYYCNAETYGLVPYYIYHYEFDYWGQGTQVTVSS | high polyreactivity
QVQLVESGGGLVQAGGSLRLSCAVSGGILYEYAMGSDREAPGKERELVAAITTSGSTYYADSVKGRFTISRDNAKNTVDLLMNSLKPEDTAVYYCAADSDYFYYDLDYWGQGTQVTVSS | low polyreactivity
QVQLVESGGGLVQAGGSLRLSCAVSGRTFYYYAMGWYRQAPGKERELVAAISSSGGSTYYADSVKGRFTISRDNAMNTVYLQLNRLKPEDTAVYYCNAYTTRSYGFDYWGQGTQVTVSS | high polyreactivity
QVQLVESGGGLVQAGGSLRLSCAYSGRTICSNAMGWYRQAPGKESELVARIDSTYYADSVKGRFTISRDNAKNTVYLQMNSLKPEDTAVYYCAADAWDHWTWFYPTNGMDYWGQGTQVNVSS | low polyreactivity
QVQLVESGGGLVQAGGSLRLSCDASALTIITNAMGWYRQAPGKERELVAAISGTGGSTYYADSVKGRFTISRDNAKYTVYLQMNSLKPEDTAVYYCAAAPYTFWVGDSWGQGTQVTVSS | high polyreactivity
QVQLVESGGGLVQAGGSLRLSCDASARTFWRNAMGWYRQAPGKERELVAAISYSGGSTYYADSVKGRFTISRDYAKNTVYLQMNSLKPEDTAVYYCAVVYSTSSLYSGYYWGQGTQVTVSS | low polyreactivity
QVQLVESGGGLVQAGGSLRLSCDASGFIFNYYVMGWYRQAPGKERELVAAISRSGGSTYYADSVKGRFTISRDNAKNTVYLQKNSLKTEDTAVYYCAAEYGYGKRAYDSWGQGTQVTVSS | high polyreactivity
QVQLVESGGGLVQAGGSLRLSCDASGFIFVVYALGWYRQAPGKERDLVAAITNGGITYYADSVKGRFTISRDNAKNTVYLQMNSLKPEDTAVYYCNAQYTVYDGYVCYYYWGQGTQVTVSS | low polyreactivity
QVQLVESGGGLVQAGGSLRLSCDASGFTFVSYAMGSYRQAPGKERELVAVISYRAGSTYYADSVKGRFTISRDNAKNTVYLPMYSLKPEDTAVYYCATDRYSRRNDYWGQGTQVTVSS | high polyreactivity
QVQLVESGGGLVQAGGSLRLSCDASGFTLEKNAMGWYRQAPGKERELVADISSTDSTNYADSVKGRFTISRDNAKNTVYIQMNSLKPEDTAVYYCGRYDGPGTEEFDYWGQGTQVTVSS | low polyreactivity
